Measured values from a protein production outcome set (Wang et al. 2014).

Test: label from the status in PepcDB records
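Also: failed if final PepcDB status was selected cloned or expressed and not failed if soluble or beyond.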

Sequence | protein production
MNTIDIAKSYITAIQTGDHATLGSIISPDVIWHQPGNHQFSGTHRGMAVVGPMLGKMMEVSNGTFAISRADDYMASGDWVAITLEFSGQANGVTLKQAGVDLLRIEDGKIVEVRLFSADQTQEDAFWGR | not failed
MNTIKLKKNALFNPEGDTDLRHRRMIGGNTTNLNDFNNMRYKWVSDWYRQAMNNFWIPEEINLTQDTKDYPHLDQAERTAYDKILSFLVFLDSLQSNNLPTISEYITANEVNLCLHIQAFQECVHSQSYSYMLDSICSPEKRNEILYQWKTDGHLLKRNTFIGNCYNEFQESQDGFTLMKTLIANYILEGIYFYSGFMFFYNLSRNGKMSGSAQEIRYINRDENTHLWLFRNIILELKKEEPDLFTPDKVKIYEYMMREGVKQEIEWGQYVIGDNIQGLNRKMIEDYIQYLGNLRWSSLGFGPLYEENHKEPESMHWVSQYSNANMVKTDFFEAKSTAYAKSTALEDDL | failed
MNTKPVLVILGPTASGKTELAFRIARQTGGEIISADSRQIYRGMDIGTAKPPRWMLDEVKHHFIDKKEIGEPFSAGDFAEQAAEKIRELHQRGITPVVAGGSTLYLEGLLKGFAELPPADPEIRAQLTRELERHGAEALYRRLEALDPEQAKTLDPTKTQRLIRSLEIIEISGTTVTALQSKTPGPPTGINFTVIGLDLPRELLYERINQRTSAMIQAGLEAEARYLFDKFRDEWRSKNLNALATVGYRELFEHFEELHDLDTAVSLIAQHTRNYAKRQLTFFRNRLDVEWVKAPLDEAEIEALVEFFSTRQDDSVPHSPIAIAKKQNA | failed
MNTMEKKTNIHAEDGKQDLLISREFDLPVELLFKAYTEPEFVEQWMGTTVLKLENKKHGSYQFETTDPKGNKHGFNGTIHEFVPDKKITRTFEMDNTPFPIQLEFLVFEKTTETTSKLNMHVIYKSVTDRDNILKLPFAQGINMAHNRIQELPTKLK | failed
MNTMLNPHYQQIWQTVQLIPQGKVACYGQIADLAGLPGRARLVGKSLGKVPKDGWRGQRVPWFRVINSQGKISFPPGSENFDKQKHHLQDEQVVVIGSRIKLKEFQWKPDLSELLFSLEFLEHHHHHH | failed
MNTMVELRKLIVFLLSFTFLLYLLYVGINISKKLRIRRSPFFLMISGVGLITLGTFLDAIDKFIDVGIKNVIAACFTFGAILFVVFIIFLSNNFVCTVSLLYEDANMDKMTGAYNRKGINEIFQRSIAKQNSFYLMLFDLDETKRLNDKYGHAVGDKYIIGASAIIKDTIGNKGFVGRIGGDEFIALLKLENEVDVEKIKKLIKDQFCESFKQYGANISIGYSRFKEDGQEFEEIFQIADKNMYDDKKSNKKNKACF | failed
MNTPSRTHLVIIPSYNPGPKVYETVQAARRYWNPVWVVVDGSTDGTWEGLLKLSAEDSGLVVLGMPANRGKGAAVLRGLLTSRRKGFTHALVMDSDGQHPADRIPEFMARSQEEPDAMILGVPVFDDSAPSLRVKGRRISNWWANLETLWCGIGDSLFGFGVYPIQALCVIMQDHQWMRRFDFDPEAAVRLCWAGIRPVNLPVPVYYPKPEEGGTSHFHYWRDNALLTWMHVRLMFGFLARLPILLARIVRRPEILEHHHHHH | failed
MNTSDRIKSTQIALDRDLREQALLLLKEVRAVDGVDALSEQFVRGLAEPGLGHSHLIVTLNDKLVGLAATDEETTELAVHPAHRRQGIGKALIDAT | failed
MNTSHSSPSNTLLWQSLGLGLLALLLFCAGADHQSAIGFDSRFVLFAKEMLRHGPGFFPTTYGQPYADYSSASTLLVWLFSLPGGQVTSLTAWLPTAIASALIVSLIYRLLAPYSRTWALLSVALLLLSNTFISETRAVSLDQMLAAVSLAVFYLGYAHDHFGTRRRLGWIFLLLVLGFAIRGPIGLVIPTGMLCSYYLLNGQWRRLFSVGFSALALLVACVGLLLWLAKLSGGQAFVDDVIRMQFMGRMDGSEGSSDVFYYFTSSLGNYALAYPLAILAWLAVLLTRATEQGPGLKLLRLCTAAGLIVMIGLSIPQAKKARYLLPMLPMAAIIAAYPFQAGRGRLLAWLRGAIQGLWLLLPGLLIIGLLVLRRKFPEQLDSLTPMLLVLGLLQLLSLGLLFKRQWRAVGLAYSAVLAVWACYIGVFEPVEHRLYDTRTFSHSAMQLIEADPAPVVLHRMGKDAKAIKFMVNLDRDLQPQFTESPDALAQVPGPAWVILDQSDLASLQNTPLADLKPVLSGRFDKNDFVLLHLTGPTAAQP | failed
MNTVFFYLQVSIKNLHDSIKNLRVSIKNLYVSIKGAGITAFLQTVKYERFEEKILMDFISNLFGRDKNQSFLEASKQGQTENVEKLLRSNKVDVNYQDAYGKTALISAADKGYRDVIGLLIESGPNLDLQDENGNTALISAAKIERGDIIDLLVKNGADLNFQDENGETALKFAVKVGYKNIADQLIDAGTDLNIQDENGETALICAADRAHRDIAELLIKAGADLNIQDNSGKTALVAATKIGHKGIVELLVNAGADLNLQDKNGNTALIYAADRGYRDIVNLLIEGGASLNIPDEAGLTALMFSAQTGRKDIVELLIKAGADINIEDKNNKTAADLAAEVGFEEIVDLLTSVRTYSSS | failed
MNVAEEMLSGEETLAVGERFKTFLENFRTEEGKLKYVEAIRRMINYEETSLEVEFKDLYRYDPLLSEILLEKPREFLKEASEALKEIVAQESPEYAQGRVFTPRFTGLFDTERIRDIGSDHVGKLVQINGIVTRMHPRATRMVRARFRHDRCGAEFWWPANEDEVLGERIERPSICPVCGEGGGKFTLVRDKSLYIDWQKIMVQERPEDVPGGQIPRSIEVHLSRDLVEKVRPGDRVKIVGVVGLQSFSSSSTLYSLYMEANSILLEEKILEEVSITREDEEKILQLSRDPWIKEKIIASIAPTIYGHWDLKEAIALLLFGGVPKQRPDGTRTRGDIHVLFVGDPGVAKSQLLQSTAQVAPRVVYTTGKGSTAAGLTAAVLRDPRTGEYFLEAGALVLADGGIAVIDEFDKMSKEDRGVIHEAMEQQTVSIAKAGIKATLSARASLLAAGNPKFGYYDPSRSFVDNVDLPAPIISRFDLIFVVRDVIERSRDEMLASYVLETHTNVELFKPEIDPDLLRKYIAFARKHVKPRLTPQAKKLLKDFYVEMRSSALHHSSQEGAKPVPITTRQLEALIRLTEAHARMSLKQEATEEDAIAAIRIMTSVLQSIGLDLETGEIDIGIIMTGASFRSRKIMSEVLDLIKSIVEEERGGQGCVRASEIVRRLGEKNIPEEKVRDAIDKLYRQGLIIEIRTECYKAV | failed
MNVDARVGVAVDGAQSALNTATTVHSSVVMTQIKPQAKLGTFQNLLAGGIAGAISKTCTAPLARLTILFQLQGMQSEGAVLSRPNLRREASRIINEEGYRAFWKGNLVTVVHRIPYTAVNFYAYEKYNLFFNSNPVVQSFIGNTSGNPIVHFVSGGLAGITAATATYPLDLVRTRLAAQRNAIYYQGIEHTFRTICREEGILGLYKGLGATLLGVGPSLAINFAAYESMKLFWHSHRPNDSDLVVSLVSGGLAGAVSSTDDKLFDAHNYVATYPLDLVRRRMQVEGAGGRARVYNTGLFGTFKHIFKSEGFKGIYRGILPEYYKVVPGVGIVFMTYDALRRLLTSLPD | failed
MNVELFKKFSEKVEEIIEAGRILHSRGWVPATSGNISAKVSEEYIAITASGKHKGKLTPEDILLIDYEGRPVGGGKPSAETLLHTTVYKLFPEVNAVVHTHSPNATVISIVEKKDFVELEDYELLKAFPDIHTHEVKIKIPIFPNEQNIPLLAKEVENYFKTSEDKYGFLIRGHGLYTWGRSMEEALIHTEALEFIFECELKLLSFHS | not failed
MNVFQMLRLPDLVSLLNLICGIGSIAVAAQSDSFGFALILLLLAAVADGADGYIARRFKGGELGEQLDSLADAVSFGVAPALLIFLEFGVEEPIVGIFAGLYAVCGVLRLARFNSSISVPKAGFEGLPITAGCIMLVTYLLLGESFVIVDVLLALTLALSILMVSTVNYPKIRNIKILAFVAAVFGITMLLYFIDVQYMRVFSFLPFILMLSYLFSPFLKIPVISIATSKDYGNRKGAKAEGRKEKQ | failed
MNVKRIKKRMFITFSIIAVLAIALYIFLQTAPFGNPPADARLERIRKSANYKDGVFKNLSNTPVMAEDASYMDMIKQQFSKDSTREPAVCIPSVKRDLSLVPSDRPVITWFGHSTYLIQTEGKNILIDPVFCTSTSPVQFVGNKKYKGTEVYTPADFPAINYLILTHDHYDHLDYQTTLDMQSKVFSYYMPLGVGSHLESWGIDTAKLHELDWWQEIDLEPGYKLVCLPARHFSGRSITDRGKTLWASYLLITPTHKIYIGGDSGYDTHFKQIADKYGAVDIAFLESGQYNAYWPYIHMMPEQTVQAAKDLQAKVLLPVHWGKYTLALHPWDEPIKRLTLEAHKQQVNVATPMIGEPVILDSILPHSTWWVPEGKK | failed
MNVVRYTPWPGQAALQNEIKQVFDRFFEHNGDTDESAVVTAQWVPRVDIKEEPNQFVLYADLPGIDPADIEVQMDKGILSIKGERKTESSSQTEHFSRIERRYGSFHRRFALPDSADADGITASGSHGVLRILIPKQAATTPRRIQVGNAVSSDVALQSMLEHHHHHH | not failed
MNVYFLGGGNMAAAVAGGLVKQGGYRIYIANRGAEKRERLEKELGVETSATLPELHSDDVLILAVKPQDMEAACKNIRTNGALVLSVAAGLSVGTLSRYLGGTRRIVRVMPNTPGKIGLGVSGMYAEAEVSETDRRIADRIMKSVGLTVWLDDEEKMHGITGISGSGPAYVFYLLDALQNAAIRQGFDMAEARALSLATFKGAVALAEQTGEDFEKLQKNVTSKGGTTHEAVEAFRRHRVAEAISEGVCACVRRSQEMERQYQ | not failed
MNWQLKSKEAEVMNKLSLFLGCIVPNRYPGIEKATKLCLQRLEIDACDLPGASCCPAPGVFKSFDKATWLALASRNIVLSERMERDVLTVCNGCYGSLADANMELKKDPEMKACTNSCLKEIGMEFRGTSEIRHIIEFLYKEFGPEKLKEYITTPLDLKVALHYGCHLIKPSKDRNLGDTESPVFFDELVEATGAKSVDYTDKMMCCGAGGGVRSGYADESLEMLEHKLDCICKAGVDCIVNACPFCHLQFDRGQIAVNEKFGTDYSIPVLHYSQLLGLALGFSPDQLGIEQNAVQNIEFLAKIYEISAGLS | failed
MNYASNTFELIAKEWLQMKDWAEITKTRRLDMLERVVFPAIGKLPVREITPHHILKILQETAKRGAPTVAAEARRTISSVFELAVATLRADSDPVWPVRKALPANKTQHLEHHHHHH | not failed
MNYILHLSILLVVAKLLEWLFEKKDIHPIIAHILTGIILGPFLLGIIYPNEELKVLSEFGLIMMMLYMGLTSNFSAIAQNKVKAIVVASLGVAFSFILGFTTVYLFGKGISAALFVGITLGNTAIEVTSGVIMKERIKREISSVLMGAAFADDIIAVYLIGILTGMIKGQTSLLSLAILTIKIVAFILSVLIFSEFVFKKSSLIYNLVIKDLNVFFTFTIILTFSLAVIAEGIGLNRIIGAYLAGLTISRLRERKDPLIISRIKLNELINELQVVLTEFFIPLFFIYVGLMFDPDTSEINLLLIALLYASAILGKLIGCGLGVKVFKGSWKDAVIVGIGMGGRGSLDLALLKFGLESGMIGEDLFATTVIVSMLTALSTPIFFRKTVKKLSEE | failed
MNYPLTLEMDLENLEDLFWELDRLDNYNDTSLVENHLCPATEGPLMASFKAVFVPVAYSLIFLLGVIGNVLVLVILERHRQTRSSTETFLFHLAVADLLLVFILPFAVAEGSVGWVLGTFLCKTVIALHKVNFYCSSLLLACIAVDRYLAIVHAVHAYRHRRLLSIHITCGTIWLVGFLLALPEILFAKVSQGHHNNSLPRCTFSQENQAETHAWFTSRFLYHVAGFLLPMLVMGWCYVGVVHRLRQAQRRPQRQKAVRVAILVTSIFFLCWSPYHIVIFLDTLARLKAVDNTCKLNGSLPVAITMCEFLGLAHCCLNPMLYTFAGVKFRSDLSRLLTKLGCTGPASLCQLFPSWRRSSLSESENATSLTTF | failed
MNYRLIPALFLIVMGALFLLDNLGLAHMDVGNLIATWWPVFLIAAGVRQLLRYRQRAAATC | failed
MNYSHPISLKTLVQEDDIGVNAPIIHQSVIARLTAGLYPLYQSKKIPFEPLPETMLTEGYSSPVPDVLLYDHQTEEAKVIIEVCQNSGLKHDTSKIVKLIEDNAYGILEGFVFNYKTQQWLRYRLGDGGVATNSSFSEVLQVDLNTFV | not failed
